In assay [1] the target is T1, human pregnancy-associated plasma protein-A (PAPP-A) (human, UniProt Q13219 82-1627).
T1 construct: Recombinant, from 293T cells; also called human PAPP-A; full-length PAPP-A
Kind of assay: ELISA. For orientation: An ELISA detects its analyte on a solid surface through an enzyme-linked reagent.

For another assay, the target named is human PAPP-A(D1502A) (human, UniProt Q13219 82-1627). As to the kind of experiment: ELISA, PAPP-A mutant captured with polyclonal PAPP-A antibodies. As for the experimental part:
(§1) A, PAC1 binding to human PAPP-A/PAPP-A2 chimeras or truncated human PAPP-A variants analyzed by ELISA. Sequence derived from PAPP-A is shown by open bars, and absence of binding (−) or binding (+) is indicated. […] Samples with or without EDTA (10 mM) were injected (120 s) followed by dissociation (180 s) (solid lines). […] The absence of binding (−) or binding (+) is indicated. PAC5, which was used as a positive control, binds to an epitope of PAPP-A located N-terminal to CCP1.
(§2) Determination of antibody specificity and mapping of antibody binding—Mapping of antibody binding was carried out by ELISA using PAPP-A/PAPP-A2 chimeric proteins, and mutated variants of PAPP-A. The proteins were immobilized with polyclonal PAPP-A antibodies, and binding of phage antibodies were analyzed as detailed above.

The target in a further assay is human PAPP-A(D1484A) (human, UniProt Q13219 82-1627). Described as above. As to the method:
as §1, §2

Another assay deals with human PAPP-A(D1499A) (human, UniProt Q13219 82-1627). Described as above. As for the experimental part: as §1, §2
The target of assay [2] is T2, PA 1-599 (fragment of human PAPP-A, residues 1-599) (human, UniProt Q13219 82-679).
T2 sequence: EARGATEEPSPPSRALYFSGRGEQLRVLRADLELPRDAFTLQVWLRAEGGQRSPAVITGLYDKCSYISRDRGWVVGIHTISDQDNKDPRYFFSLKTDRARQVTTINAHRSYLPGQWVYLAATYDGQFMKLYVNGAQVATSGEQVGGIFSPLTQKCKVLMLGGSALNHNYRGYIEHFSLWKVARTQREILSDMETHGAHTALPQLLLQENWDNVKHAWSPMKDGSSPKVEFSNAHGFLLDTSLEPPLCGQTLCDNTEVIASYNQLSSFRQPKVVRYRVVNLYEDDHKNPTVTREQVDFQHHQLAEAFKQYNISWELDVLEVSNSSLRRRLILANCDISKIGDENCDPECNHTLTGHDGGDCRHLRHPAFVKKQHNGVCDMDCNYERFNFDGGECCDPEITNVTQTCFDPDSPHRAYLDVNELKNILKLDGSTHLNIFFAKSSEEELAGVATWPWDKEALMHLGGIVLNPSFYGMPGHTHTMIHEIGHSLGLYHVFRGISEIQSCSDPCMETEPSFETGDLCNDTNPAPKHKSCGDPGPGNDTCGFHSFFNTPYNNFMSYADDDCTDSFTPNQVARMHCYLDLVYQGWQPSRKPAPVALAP
Kind of assay: binding of PAC5 to fragments of human PAPP-A.

The target in assay [3] is T3, PA 937-1547 (fragment of human PAPP-A, residues 937-1547) (human, UniProt Q13219 1017-1627).
T3 sequence: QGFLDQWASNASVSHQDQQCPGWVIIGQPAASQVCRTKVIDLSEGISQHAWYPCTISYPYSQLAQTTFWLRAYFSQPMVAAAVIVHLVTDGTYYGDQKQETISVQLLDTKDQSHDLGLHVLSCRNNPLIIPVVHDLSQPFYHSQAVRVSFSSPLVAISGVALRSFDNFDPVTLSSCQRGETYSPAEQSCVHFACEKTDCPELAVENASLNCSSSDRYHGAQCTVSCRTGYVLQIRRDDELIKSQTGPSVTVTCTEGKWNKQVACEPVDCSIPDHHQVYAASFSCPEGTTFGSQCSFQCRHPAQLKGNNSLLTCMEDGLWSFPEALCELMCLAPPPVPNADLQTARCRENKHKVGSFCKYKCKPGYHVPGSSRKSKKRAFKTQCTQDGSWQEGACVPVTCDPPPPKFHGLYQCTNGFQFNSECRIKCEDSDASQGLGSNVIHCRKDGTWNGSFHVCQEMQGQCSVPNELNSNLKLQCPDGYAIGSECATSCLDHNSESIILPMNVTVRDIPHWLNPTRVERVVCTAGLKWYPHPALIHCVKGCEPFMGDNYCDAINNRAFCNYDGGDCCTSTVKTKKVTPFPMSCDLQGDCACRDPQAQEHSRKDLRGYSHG
As to the kind of experiment: binding of PAC5 to fragments of human PAPP-A.

Assay [4] deals with T4, PA 1-950 (fragment of human PAPP-A, residues 1-950) (human, UniProt Q13219 82-1030).
T4 sequence: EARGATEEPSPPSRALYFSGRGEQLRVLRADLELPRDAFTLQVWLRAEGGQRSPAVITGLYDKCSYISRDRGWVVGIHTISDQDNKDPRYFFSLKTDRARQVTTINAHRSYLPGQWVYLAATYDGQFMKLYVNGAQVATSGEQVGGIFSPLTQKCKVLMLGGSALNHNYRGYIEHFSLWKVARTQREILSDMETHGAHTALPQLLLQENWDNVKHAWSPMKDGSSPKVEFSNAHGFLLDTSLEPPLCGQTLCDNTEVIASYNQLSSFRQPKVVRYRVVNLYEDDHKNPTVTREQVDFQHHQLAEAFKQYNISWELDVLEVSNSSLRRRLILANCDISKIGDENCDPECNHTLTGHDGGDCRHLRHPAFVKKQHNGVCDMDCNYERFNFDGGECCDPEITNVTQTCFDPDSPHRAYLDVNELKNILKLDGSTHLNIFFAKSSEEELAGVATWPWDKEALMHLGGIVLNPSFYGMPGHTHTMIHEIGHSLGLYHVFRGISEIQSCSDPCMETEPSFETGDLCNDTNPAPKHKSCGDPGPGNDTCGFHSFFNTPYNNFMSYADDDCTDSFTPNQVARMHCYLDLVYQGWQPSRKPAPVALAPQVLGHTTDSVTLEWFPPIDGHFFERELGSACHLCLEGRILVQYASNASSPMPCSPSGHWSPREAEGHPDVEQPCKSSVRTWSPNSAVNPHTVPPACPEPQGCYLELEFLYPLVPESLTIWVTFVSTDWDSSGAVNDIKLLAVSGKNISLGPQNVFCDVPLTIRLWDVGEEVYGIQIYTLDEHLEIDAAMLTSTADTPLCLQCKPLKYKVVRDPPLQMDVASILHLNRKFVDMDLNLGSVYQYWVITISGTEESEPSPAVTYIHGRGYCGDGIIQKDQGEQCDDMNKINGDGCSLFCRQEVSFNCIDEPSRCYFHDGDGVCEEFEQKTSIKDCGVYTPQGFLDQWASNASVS
As to the kind of experiment: binding of PAC5 to fragments of human PAPP-A.

B1: PAC5 (PAPP-A non-exosite antibody, scFv) (scFv)
scFv: EVQLLESGGGLVQPGGSLRLSCAASGFTFSSYAMSWVRQAPGKGLEWVSAISPAGVMTQYADSVKGRFTISRDNSKNTLYLQMNSLRAEDTAVYYCAKQQGGFDYWGQGTLVTVSSGGGGSGGGGSGGGGSTDIQMTQSPSSLSASVGDRVTITCRASQSISSYLNWYQQKPGKAPKLLIYRASALQSGVPSRFSGSGSGTDFTLTISSLQPEDFATYYCQQPIARPPTFGQGTKVEIKRAAAHHHHHHGAAEQKLISEEDLNGAA
notes: Obtained by screening on full-length human PAPP-A and used as a control antibody in the scFv format; also called clone PAC5
For the molecule B1, the binding result in assay [1] was “binds”; with human PAPP-A(D1502A), “binds”; with human PAPP-A(D1484A), “binds”; with human PAPP-A(D1499A), “binds”; in assay [2], “no binding”; in assay [3] it was “no binding”. Further, the binding result in assay [4] is “binds”.

The record behind these values is patent US20100310646A1 (AARHUS UNIVERSITET, published 2010).
